A short description of this data set: yeast display, Sf9 membrane polyspecificity reagent, FACS + sequencing; frameworks hold sequencing errors. An outline of the steps: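 Genes from sorted yeast were amplified by colony PCR, read by MiSeq 2 × 250 sequencing and filtered on CDR length. These cells carried a synthetic nanobody library in Saccharomyces cerevisiae BJ5465 and were sorted by FACS into low and high (top ~1%) gates on anti-HA and streptavidin fluorescence. Polyreactivity is labelled according to the gate of origin.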
“QVQLVESGGGLVQAGGSLRLSCAPSGSTYLSYAMGWYRQAPGKERELVAAITYSGGRTYYAESVKGRFTISRDNAKITVYLQMNSLKQEDTAVYYCAATGVFRDEYWGQGTQVTVSS”: the “polyreactivity (PSR sort gate)” value was “low polyreactivity”.
On to “QVQLVESGGGLVQAGGSLRLSCAASGSIFRRNAMGWYRQAPGKDRELVAAITTRGSRTTYADSVKGRFTISRDNAKNTVYLQMNSMKPEDTAVYYCAARQHFSYSFHVAYDYWGQGTQVTVSS”, for which the “polyreactivity (PSR sort gate)” value was “high polyreactivity”.
In the case of “QVQLVESGGGLVQAGGSLRLSCAASGITILWNVMGWYRQAPGKERELVATITSIGGITNYADSVKGRFTISRDNAKNTVYLQMNSLKPEDTAVYYCARDDRDIRGVSGREGFLYDYWGQGTQVTVSS”, the “polyreactivity (PSR sort gate)” value is listed as “low polyreactivity”.
As for “QVQLVESGGGLVQAGGSLRLSCAASGIIFTTNAMGWYRQAPGKERELVATITSGGGTYYADSVKGRFTISRDNAKNTVYLQMNSLKPEDTAVYYCAATPGWGPWIFDHSYVDFDYWGQGTQVTVSS”, the entry is “low polyreactivity”.
With “QVQLVDSGGGLVQAGGSLRLSCAASGRNFNEYAMGWSRPAPGKERELVAAISSSGDSTYYADSVKGRFTISRDNAKNTVYLQMNSLKPEDTAVYYGAAQVVVWYPYVYFPGSDYWGQGTQVTVSS” the entry was “low polyreactivity”.
As to “QVHLVESGGGIVQAGGSLRLSCAASGRTFWNYAMRWYRQAPGKERELVAVIRFSDGSTYYADSVKGRFTISRDNAKNTVYVQMNSLKPEDTAVYYCAAKGQRRWGSGFDYWGQGTQVTVSS”, the “polyreactivity (PSR sort gate)” value is listed as “low polyreactivity”.
As for “QVQLVESGGGLVQAGGSLRLSCAASGITFRRNAMGWYRQAPGKERELVAAITSRGGSTYYADSVKGRFTISRDNAKNTVYLQMNSMKPEDTAVYYCNAGGVDRVDRDYWGQGTQVTVSS”, the “polyreactivity (PSR sort gate)” value is on record as “high polyreactivity”.
As to “QVQLVESGGGLVQAGGSLRLSCAASGSTFGVNAMGWYRQAPGKERELVADMSFRTDSTYYADSVKGRFTISRDNAKNTVYLQMNRLNPEDTAVYYCAAEVPYYYPGFYSYYDDSDYWGQGTQVTVSS”, the “polyreactivity (PSR sort gate)” value is recorded as “low polyreactivity”.
For the sequence “QVQLVESGGGLVQAGRSLRLSCAASGSIFEYYAMGWSRQAPGKEWELVAAITESGGSTYYADSVKGRFHNFTRQCEEYRLFTDEQPETGRYRGLLLAADAESYQNDYALDYWGQGTQETVSS”, the “polyreactivity (PSR sort gate)” value is on record as “low polyreactivity”.
As for “QVQHEESGGGLVQAGGSLRLICAASGRTFADNAMGWYRQAPGTERELVPSISSVTSTNYADSVKGRFTISRDNAKYTVYFQMNSLKPEDPAVYDCNAYGPIWYTAVLGFGRYYGWTDYWGQGTQVTVSS”, the entry is “low polyreactivity”.
With “QVQLVESGGGLVQAGGSLRLSCAASGSTFGPYAMGWYRQAPGKERELVATISGSGSSTYYADSVKGRFTISRDNAKNTVYLQMNSLKPEDTAVYYCATDLYFDLRYDYWGQGTQVTVSS”, the “polyreactivity (PSR sort gate)” value is “low polyreactivity”.
Consider “QVQLVESGGGLVQAGGSLRLSCAASGSIFGRYVMGWYRQAPGKERELVAAISTSGDSTYYADSVKGRFTISRDNAKNTVYLQMNSLKPEDTAVYYCNARKRTFPSRSIGGDYWGQGTQVTVSS”, for which the “polyreactivity (PSR sort gate)” value is listed as “high polyreactivity”.
Turning to “QFQLVESGGGLVQAGGSLRISCAATGLIYYVYAMGWYRQAPGKESELVAAIRSGGSTNNADSVKGRFTISRDNAKNTVYLQMNRLKPEDTAVYYCAVDTWYFLFQYGYYQEGDYWGQGTQVTVSS”, the “polyreactivity (PSR sort gate)” value was “low polyreactivity”.
Turning to “QVQLVESGGGLVQAGGSLRLSCAASGSIITWNAMGWYRQAPGKERELVAALDWDGGSTYYADSVKGRFTISRDNAKNTVYFQMNRLKPEDTAVYYCAATYGWYTGRYPSGHYYYWGQGTQVTVSS”, the “polyreactivity (PSR sort gate)” value was “low polyreactivity”.
“QVQLVESGGGLVQAGGSLRLSCAASGSTFGLKAMGWYRQAPGKERELVAAITSGGTYYADSVKGRFTISRDNAKNTVYLQMNSLKPEDTAVYYCAADGTWSIYGGLYYWGQGTQVTVSS”: the “polyreactivity (PSR sort gate)” value is listed as “low polyreactivity”.
As for “QVQLVESGGGLVQAGGSLRLSCAASGRTFAAYAMGWYRQAPGKERELVATIRRGGTTDYADSVKGRFTISRDNAKNTVYLQMNSLKPEDTAVYYCNARSRTYRTRRYDYWGQGTQVTVSS”, the “polyreactivity (PSR sort gate)” value is “high polyreactivity”.
Take “QVQLVESGGGLVQAGGSLRLSCAASGSNFPHYTMGWYRQAPAKERELVAAISNYGSSTYYADSVKGRFTISRDNAKNTVYLQMNSLKPEDTAVYYCNADDYGYSPGVNYWGQGTQVTVSS”: the “polyreactivity (PSR sort gate)” value is “low polyreactivity”.
“QVQLVESGGSLVQEGGSLRLSCAASGRTYNVMGWDRQAPGKERELVAAITWGGGSTHYADSVKGRFTISRDNAKNTVYVQMNSLKPEDTAVYYCAADLLYKSTRVDYWGQGTQVTVSS”: the “polyreactivity (PSR sort gate)” value is “low polyreactivity”.
As for “QLQLVESGGGLGQSGGSIRLSCAASGFIFPVYTMGRSRQAPGKERELVAAITQIGGSTHYADSVKGRFTISRDNAKNTVYLQMNSLKPEDTAVYYCNAVPSYGTEYDYWGQGTQVTVSS”, the “polyreactivity (PSR sort gate)” value is reported as “low polyreactivity”.
With “QVQLVESGGGLVQAGGSHRLSCAASGRTFYRYPMGWYRQAPGKERELVATINSGTSTSYADSVKGRFTISRDNAKYTVYLQMNSLKPEDTAVYYCAAKLWTLSFSSRFGGMYYWGQGTQVTVSS”, the “polyreactivity (PSR sort gate)” value is given as “high polyreactivity”.
In the case of “QVQLVESGGGLVQAGGSLRLSCAASGSTFGRYAMGWYRQAPGKERELVAAISRRGGSTYYADSVKGRFTISRDNAKNTVYLQMNSLKPEDTAVYYCATGYPIDLGREFDYWGQGIQVTVSS”, the “polyreactivity (PSR sort gate)” value is reported as “high polyreactivity”.
As for “QVQLVESCGGLVQAGGSLRLSCAASGGTIVFYAMGWYRQAPGKERELVAAISSSGGSTYYADSVKGRFTISRDNAKNTVYLQMNSLKPEDTAVYYCNTPSYSGSSPYDHWGQGTQVTVSS”, the “polyreactivity (PSR sort gate)” value is listed as “high polyreactivity”.
Consider “QVQLVESVGGLVQAGGSLRLSCAASGFTFTRYAMGWYRQAPGKERELVAAISSGGDTYYADSVKGRFTISRDNAKNTVYLQMNSLKPEDTAVYYCAADQSSLDYGNDYWGQGTQVTVSS”, for which the “polyreactivity (PSR sort gate)” value was “low polyreactivity”.
Turning to “QVQLVESGGCLVQAGGSLRLSCAASGRTFSLYAMGWYRQEPGQERELVASITDSTGGSTYYADSVKGRFTLSRDNAKNTVYLQMNSLKPEDTAVYYCAAQDYQYSDYQWWFGYWGLGTQVTVSS”, the “polyreactivity (PSR sort gate)” value is “low polyreactivity”.
“QVQLVESGGGLVQAGGSLRLSCAASGFIFIYNVMGWYRPAPGKERELVAAINRGGSTKYADSVKGRFTISRDNAKNTVYLQMNSLKPEDTAVYYCAARYDGSRYHYDGYDYWGQGTQVTVSS”: the “polyreactivity (PSR sort gate)” value was “low polyreactivity”.
With “QVQLVESGGGLVQAGGSLRLSCSAYGRIFRGYAMGGYRQAPGKERELVASISGGDSTYADSVQGRFTISRDNAKNTVYLQMNSLKPEDTAVYYCADDNEWPRYDYWGQGTQVTVSS” the entry was “low polyreactivity”.
In the case of “QVQLVESGGGLVQAGGSLRLSCAASGRIFSGYAMGWYRQAPGKERELVAAITSGGSTNYADSVKGRFTISRDNAKNTVYLQMNSLKPVDTAVYYCAKYYFQYKHDYWGQGTQVTVTS”, the “polyreactivity (PSR sort gate)” value was “low polyreactivity”.
For the sequence “QVQLVESGGGLVQAGGSLRLSCAASGFIFGPNAMGWYIQAPGKERELVAAITWSSGRTYYADSVKGRFTISRDNAKNTVYLQMNSLKPEDTAVYYCAADFSRAVLRGNYWGQGTQVTVSS”, the “polyreactivity (PSR sort gate)” value is “high polyreactivity”.
Regarding “QVQLVESGGGLVQAGGSLRLSCAASGIIFIGNAMGWYRQAPGKERELVAAISWNGVRTYYADSVKGRFTISRDNAKNTVYLQMNSLKPEYTAVYYCAAVTRRGIKLDYWGQGTQVTVSS”, the “polyreactivity (PSR sort gate)” value is reported as “high polyreactivity”.
Regarding “QVQLVESGGGLVQAGGSLRLSCAASGSNFSRYAMGWYTQAPGKERELVAAISKSGGSTYYADSVKGRFTISRDNAKNTVYLEMNSLIPEDTAVYYCNARDSPVQRRAEPYGYWGQGTQVTVSS”, the “polyreactivity (PSR sort gate)” value is given as “high polyreactivity”.
Turning to “QVQLVESGGGLVQAGGSLRLSCAASGRIFAWYAMGWYRQAPGKDRELVAAISDSGGSTYYADSVKGRFTISRDNAKNTVYLQMNSLKPEVTAVYYWAADQVVYYAYWSDHYDDWGQGTQVTVSS”, the “polyreactivity (PSR sort gate)” value is “low polyreactivity”.
Consider “QVQLVESGGGLVQAGGSLRLSCAASGRTILGNAMGWYRQAPGKEREFVATISKTGGSTYYADSVKGRFTISRDNAKNTVYLQMISLKPEDTAVYYCAVEIVSYVYGWLVDYDYWGQGTQVTVSS”, for which the “polyreactivity (PSR sort gate)” value was “low polyreactivity”.
Consider “QVQLVESGGGLVQAGGSLRLSCAASGRTFGRYAMGWYRQAPGKERELVAAISWSGGSTYYADSVKGRFTISRDNAKNSVYLQMNSLKPEDTAVYYCAAYEHVYVYDYWGQGTQVTVSS”, for which the “polyreactivity (PSR sort gate)” value is given as “low polyreactivity”.
With “QEQLQESGGGLVQAGGSLRQICAASGSNTPWSYMGRYRQAPGKEREFVASINAGTNTYYADSAKGRITISRDNAKITVYLQMNSLKPEDTAVYYCAARPDGDRLFSYWGQGTQVTVSS” the entry was “low polyreactivity”; with “QVQLVESGGGLVQAGGSLRLSCAASGFIFASYARGWYRQAPGKERELVAAISSSGGSTYADSVKGRFTISRDNAKNTVYLQMNSLKPEDTAVYYCAAQGYGDNRNKYYYWGQGTQVTISS”, “high polyreactivity”; with “QVQLVESGGGLVQAGGSLRLSSAASGRTFFYYAMGWYRQAPGKERELVAVISGSGARTYYADSVKGRFTISRDNAKYTVYLQMNSLKPEDTAVYYWIKVFARSRSSRYQAYDYWGQGTQVTVSS”, “high polyreactivity”.
Regarding “QVQLVESGGGLVQAGGSLRLSCAASGFTFLYNAMGWSRQAPGKERELVASINSGGSTNYADSVKGRFTISRDNAKNTVYLQMNSLKPEDTAVYYFNAKRHVRKGDYWGQGTQVTVSS”, the “polyreactivity (PSR sort gate)” value is on record as “low polyreactivity”.
Consider “QVQLVESGGGLVQAGGSLRLSCAASGRTLGRNAMGWYRQAPGKVRELVASISSGGSTNYAYSVKGSFTISRDNAKNTVYLQMNSQKPEDTEVYYCNKRYRSLYSSGYDYWGQVTQVTVSS”, for which the “polyreactivity (PSR sort gate)” value was “high polyreactivity”.
As for “QVQLVESGGGLVQAGGSLRLSCAASGSTFSDYAMGWYRQEPGKERELVAAISSDGSTYYADSVKGRYTISRDNAKNTVYLQMNSLKPEDTAVYYCAKDVILVWPYATGRDFWGQGTQVTVSS”, the entry is “low polyreactivity”; as for “QVQLVDSGGGLVQAGGSLRLSCDASGSIFFWYTMGWYRQAPGKESELVATITGSGSSTTYADSVKGRFTISRDNAKNTVYLQMISLKPEDTAVYYCAAADIIDHSFPYDYWGLGTQVTVSS”, “low polyreactivity”.
